± gives the uncertainty stated by the source.
Experiment: amyloid nucleation score (Sup35N fusion, yeast selection) (log enrichment); library NNK1; higher = more nucleation; inactive = no reads after selection
Method in brief: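 On medium lacking adenine and uracil, psi-negative yeast expressing peptides of 20 random codons fused to Sup35N were grown 7 days at 30°C after a 24-hour induction with 100 μM copper sulfate. Illumina sequencing of input and output plasmid inserts gave the reads, and sequences under 100 input reads were excluded. The nucleation score is the DiMSum log enrichment of output over input reads, centred on the mode score of non-aggregating sequences.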

| Substance | amyloid nucleation score |
| --- | --- |
| RHIVFDRPSISFWLKSRKRR | 0.501 ± 0.64 |
| CLKFLDLNIKIDPYQFSF | inactive |
| FMPYWNTLNFMSYGVRLIHK | 0.231 ± 0.65 |
| ELKSPCNVSPIWSRSRQTST | 0.216 ± 0.68 |
| ANGLMGSWSLEARSFRSDVL | -0.179 ± 1.5 |
| GSRSLLQR | -1.06 ± 1.2 |
| IDIWVLLMNHGMKASPGDLE | -0.479 ± 0.42 |
| VVDVHVSFRCLFKMGV | 1.51 ± 0.4 |
| MYWESSSHEHVSEKPVRLIL | 1.07 ± 0.84 |
| VIHTRGNWSKRHVMIWISES | -0.016 ± 1.2 |
| VHNCMVFLLKFIDSRHFIVI | -0.292 ± 1.6 |
| RASILCA | 0.268 ± 0.66 |
| FGHKCAIFGNWEF | -0.933 ± 0.84 |
| SMVLFGRISWIGEVLLL | 4.99 ± 0.089 |
| GLETNNLARLVCGSRCFLSD | -0.894 ± 2.4 |
| IFVVGKGDLGCCQI | 0.967 ± 0.35 |
| SHGNLYGHHERLNSTRNPES | -1.14 ± 0.9 |
| FAHHLYINRMSRFIDARVTI | 2.37 ± 0.13 |
| VQAAGYITLATVALWSTSMQ | 2.02 ± 0.31 |
| RNQDLLHFLVVGIAVKKYNY | -0.598 ± 0.35 |
| MYASRNNFNSFTGYRYSSVS | -0.077 ± 0.21 |
| RKCWGSKEGVKKT | -0.62 ± 0.39 |

| Substance | amyloid nucleation score |
| --- | --- |
| TVHVGTVPKFSYRFGIMGTE | -0.482 ± 0.66 |
| PMTPTCPLTNASTCPSTDRR | -0.644 ± 0.74 |
| NCLRNWHKFI | -0.845 ± 0.7 |
| IFSNQSATLGLSVSSWIYLE | -0.983 ± 0.4 |
| VSYFVHIC | 0.145 ± 0.56 |
| SWTVGSMLSLDIWHRVYLTT | -0.058 ± 0.44 |
| WNMFGS | 0.848 ± 0.29 |
| FFFRKTSY | 0.552 ± 0.87 |
| FRSELMFSVLPFLGASSVAC | 1.44 ± 0.69 |
| YGSGPNDWLYVWGNSLWQKV | -0.106 ± 0.66 |
| MFSRF | 0.607 ± 0.79 |
| RMCLDGPITWFDRHK | 2.16 ± 0.15 |
| CNFHVCLRLRDIWSRLYLVV | 7.157 ± 0.07 |
| EGHWGFWPIGSFTCTSFLVY | 0.86 ± 0.58 |
| FKLVI | 0.697 ± 0.9 |
| SIRLYETHSLT | 0.885 ± 0.14 |
| HVGSATASRVMSGCGSTVSY | -1.83 ± 1.7 |
| WCVWFVQISCMVRVGAKLNS | 0.184 ± 0.38 |
| KTGARYSLSACYLTRTDYHW | 0.056 ± 0.43 |
| WSNTCRASYFRPCGCG | 0.391 ± 0.39 |
| AFAVTASAITTVPPYREFVG | -0.545 ± 0.82 |
| FSASLNDLGLQKRVNVSVD | -0.413 ± 0.49 |

| Substance | amyloid nucleation score |
| --- | --- |
| RGFLRRHGGKGFNVLQAVGR | 1.16 ± 0.72 |
| RSQCQAGCELYGFA | -0.303 ± 0.78 |
| TYWQVARTSPSF | 0.547 ± 0.33 |
| MRISMSVSLLFSYSQYVKLE | -0.238 ± 0.9 |
| LRYASEGSKFFVWNLTYLNR | -0.147 ± 1.2 |
| NWHAVNCRSPST | 1.07 ± 0.51 |
| SSPDFMFYILNRALA | -0.526 ± 1.4 |
| SIMPWNLSVRSMWRFWMNLR | inactive |
| RLRNLYLQSFDRLCAVCKGY | 0.197 ± 0.35 |
| PTYTGVLSLN | 0.341 ± 0.56 |
| FLFACFMRVAL | 1.46 ± 0.24 |
| SRLMV | 0.547 ± 0.71 |
| RPCFGFLGYNNAV | 0.109 ± 1.4 |
| YTTDREFLPICKDAATRDFL | -0.057 ± 1.1 |
| VWSNMCFLIDSI | -0.491 ± 0.3 |
| RILRCNPLLCRNSACTGIGA | 0.742 ± 0.75 |
| MRFYAMGRDVYICCDGNKIL | 5.07 ± 0.066 |
| VSGTVLTIEYCPY | 0.844 ± 0.27 |
| VCSRLDSEQHDHECASQELM | 0.106 ± 0.99 |
| MRLTNGSCHFVLF | -0.745 ± 1.7 |
| VARTW | 0.602 ± 0.57 |
| MYMIWEQGKPCSILDTHTVT | 0.598 ± 0.26 |

| Substance | amyloid nucleation score |
| --- | --- |
| CLDVFASISMRHFYFVFMCY | 0.487 ± 0.75 |
| LVYILMLYWVYGQIGNFSLV | -0.955 ± 0.9 |
| IVVSVVTASI | -0.018 ± 0.75 |
| SWRGICV | inactive |
| EHLLCVSRCMLSSNLVTNCA | -0.113 ± 0.94 |
| TVIEIKL | 1.28 ± 0.85 |
| IYGWVHTSMRMRVGTAVLPR | 0.375 ± 0.54 |
| DIAHC | -0.464 ± 0.59 |
| WWNIEEM | -0.271 ± 0.24 |
| LSHLRSLYKGCSYRMHSWMY | 1.04 ± 0.58 |
| HSIWSRERVVVGVIYVCNFN | 7.227 ± 0.048 |
| GMCPLNRNGGFGNGVVEGVV | 0.166 ± 1.6 |
| VTVTYIRCTR | 1.25 ± 0.63 |
| RSFTCVMDRSDVEVGQCLGS | -0.6 ± 0.77 |
| YRESSATGMMSGSDLKRWQV | -2 ± 2.4 |
| GVRETHLPSMLRRTALRFTF | 0.026 ± 0.36 |
| KYVIKCTSWVGAMTHSSSKA | 0.333 ± 0.24 |
| SELFWMVGMGSLSSRYNSPF | 2.37 ± 0.087 |
| SMVLKTTDAGDNLHSKCNML | -1.09 ± 0.68 |
| LMSTVIVESVVIWGMAARVQ | 2.62 ± 0.11 |

From the supplement of paper PMC12042874
